Experimental data as given in the DeepSol protein solubility set.

Test: soluble on expression in E. coli; label from the status in PepcDB or PDB records

Soluble on expression in E. coli, not soluble:
MGSDKIHHHHHHMLRLSRELEVGEATVKRWLAGKGLTIDRLERLAGLCGMVLGDLVREAEEAPGVLAHELTLAQERALSSNIFLSFLFMTILNGIQPDETAADFSVPPREMEAALTRLERLALIDRLRSGRVRPLVDRNMVFRKLPLRNLFETHMKRVFFELDYGAPETIYTSEVVKLSVAGAAQLAELLERFRGEVQSLADRDAEKANKDRDWFGVLCVMRPLEMDPIRNAWWELS
SNEFFPVDDNNEGTDADMKEDSEGPEPKGLSPPHKKSKAKKPESSKDSSEDESGPEEKQTAEEMEGQSQEADGVNTTPVPSPASEDKAEVHKDEADSAKDDNTVKDSDMTNHSVCDQELPNGQENDSAKSEGKTEAESPSSSMETEDLSPNQEDAAIVEQPEVIPLIDDQEAQEGGEAQGKDAPAVFAESQGSSEAENTSGPDVDMNSQVDGVNEPTESLQEDLQ
MLFEDEVGETPGGESYATVVNSRLSELLKRDRIVALLTNPDEVELIEQIECINYKPSISGTGGFVFFVHGDRKTYKILDTDRLALWEDTAATKDVRMSEETRLRFDQNNHLQVSKAKLALDHNGFTLYENTATLARCRRHNKKVVYVLRNGHQYGHGLIMYQYVKPGAHPDPLHQTVQLMTDAWFDILPPDIRMVVYYLLKYNHADETARIVHREHSVYLSRMKAGRPPPPSTSACTS
MKLLLLAVCVIGFVACYEVVPRASALRPRGDVRRSPLPSLSAYAPFAKSLRPASTGIRRAPAVVTLPAQKANRSVKRAPAKPLPMTLPLLPPLLPLPQFIPVPVPVLSAEGLPTLPTLAPHTFPTFTPIPGMPTMPALTMPPSFQRLLGITTTTMKPAEKAMETVQTEESDNDTTSEARAHSAPTYSKDLNTIRSRLSKFVRGSEKKVTKAEDNADWIVPFH
MAHHHHHHMVENELLYENDVSNSGLDGKPRLHSFFNKDGLLLRTYSWTVKKAIGIFLLIHGLNGHVRLQYLRQNVEVISNDKAILKDQDNYYVYKDSWIEKLNDKGYSVYGIDLQGHGLSEGWENLKANINNFDDLVYDVIQYLEEINRTVCLDYERNKYLRAIREKNTDMKALKKDKIPIYIMGLSMGGNVVLRTLELLGKSGDYKNLNIKGCISLSGMICLEELSSKASMKYKYFLVPFSKFISYIFPKCRINQNFNFEMFPFVNDIINFDKHRSKKWITFKFGHQILRSITNLRKDIQYIPKDIPILFVHSIHDCACYYGGVVTFYDQLDNDKKELYTIYDMDHLLTMEPGNEKVLEKVLDWISGSFNNKRRRRRTSS

Soluble on expression in E. coli, soluble:
MKPATYNTEAFDEWIRSRFVELNSQLEQLYYQQTDRANVQEVGTELKHTLESEGRELVKALLDEGNTDEGFDSAFDLLGNVGLYMAACRRHEITEPTRETTSPLLEASALAMHIGASIGVTPRFATAHLTTHNRAHNGIYKRFTDLPDEKLFVDYNTKGILAYKRASDALLKIQPLGISHPISHDLLRVTKQALQDVIESNQQLFNRLDTDRFFYCVRPYYKPYRVGSVVYRGANAGDFAGINVIDLTLGLCFANEASYSQMLVDKFLYMMPEDQQILRECMRRPNLMDDFLQAKGCIHQDWYQENLKLFIEVCELHGQTAIQHHNELVTKYIAEPSVSMEQQHLAKVTASGPPLHVLLASLERLRDRRAAVLRDDIRTRYYDLKKLKDSLRAAALEHHHHHH
FISRFAPDQPRKGADILVEALERQGVETVFAYPGGASMEIHQALTRSSSIRNVLPRHEQGGVFAAEGYARSSGKPGICIATSGPGATNLVSGLADALLDSVPLVAITGQVPRRMIGTDAFQETPIVEVTRSITKHNYLVMDVEDIPRIIEEAFFLATSGRPGPVLVDVPKDIQQQLAIPNWEQAMRLPGYMSRMPKPPEDSHLEQIVRLISESKKPVLYVGGGCLNSSDELGRFVELTGIPVATTLMGLGSYPCDDELSLHMLGMHGTVYANYAVEHSDLLLAFGVRFDDRVTGKLEAFASRAKIVHIDIDSAEIGKNKTPHVSVCGDVKLALQGMNKVLENRAEELKLDFGVWRNELNVQKQKFPLSFKTFGEAIPPQYAIKVLDELTDGKAIISTGVGQHQMWAAQFYNYKKPRQWLSSGGLGAMGFGLPAAIGASVANPDAIVVDIDGDGSFIMNVQELATIRVENLPVKVLLLNNQHLGMVMQWEDRFYKANRAHTFLGDPAQEDEIFPNMLLFAAACGIPAARVTKKADLREAIQTMLDTPGPYLLDVICPHQEHVLPMIPSGGTFNDVITEGDGRIKY
DDEITREPRKVVLHRGSTGLGFNIVGGEDGEGIFISFILAGGPADLSGELRKGDRIISVNSVDLRAASHEQAAAALKNAGQAVTIVAQYRPEEYSRQHA
MNSGRPETMENLPALYTIFQGEVAMVTDYGAFIKIPGCRKQGLVHRTHMSSCRVDKPSEIVDVGDKVWVKLIGREMKNDRIKVSLSMKVVNQGTGKDLDPNNVIIE
ENQYVMKLANSLFVQNGFHVNEEFLQMLKMYFNAEVNHVDFSQNVAVANSINKWVENYTNSLLKDLVSPEDFDGVTNLALINAVYFKGNWKSQFRPENTRTFSFTKDDESEVQIPMMYQQGEFYYGEFSDGSNEAGGIYQVLEIPYEGDEISMMLALSRQEVPLATLEPLLKAQLIEEWANSVKKQKVEVYLPRFTVEQEIDLKDILKALGVTEIFIKDANLTAMSDKKELFLSKAVHKSCIEVNEEGSEAAAASGMIAIS
SLQETTAQEQKVGNYALGPEGLKKALAETGSHILVMDLYAKTMIKQPNVNLSNINLGSEGGELLKNIHLNQELSRINANYWLDTAKPQIQKTARNIVNYDEQFQNYYDTLVETVQKKDKAGLKEGINDLITTINTNSKEVTDVIKMLQDFKGKLYQNSTDFKNNVGGPDGKGGLTAILAGQQATIPQLQAEIEQLRATQKKHFDDVLAWSIG
MSLDNKRIEELKEVLKSLNKIGITEELRKEALDIVKNINPIELSIAEQQLIEEGMNPQDLRHLCDIHMEVLKDELTKVKASTSKGHVLYTLIEEHDKILDFLKELEEVNSNIQKTENYDEAKDETHRLYNLAESILDAENHHQREEKVLFLEMEKREITGPTRIMKMEHDDLRAKKKELKMLSKSVDTMDFREFKSKVDEVSKYIIFNLRDHIFKENYILYPSALEAIKDKDMWDDMKRRCDEVGYCSFTFSNEGHHHHHH
MHAIDFKEIQEKLSDGFRPWQRSFQFWARATDIYTGYKVFQLRMNFVKDVNKHEEMWERQHELAAHKVYSMCSDLGGFFLKIAQILGKPDLAPAAWVRKLVTLCDQAPATPFDAVRVVLEKELGKSIEQVFETFDEKPLGSASIAQVQHPGVEKLMMVDIRNLQIFALYMQKTDIKFDLFSMTKEIEKQIGYEFDFKREANAMEKIRRFLYDNNRKSPVLVPRVFPNLVTRKVLVMEFMNGIPILSLGDEMAKRGINPHGKMAEAAKFNILHSLSQAYGQMILKSGFFHADPHPGNILIGKGSEASHLLELGIATVAKCKNEQQELLQLAKTMFDTEMPPGTTTLQPFSEDSSIKKISVEAFPEELFSVLRTVVLLRGLSVGIGINYSCAQHWRAMAEEALHASGRLSTG
MKIAIIGLGLMGGSLGLCLKENKLISCVYGMDLSKENEKDALQLGLIHELIEFKDLALCDMIFVATPVNAIIEILQKLVDLPSNVTIIELGSTKRKIIESLPKNLIKQTLFAHPMTGTENSGPKAAFKELYKDAVCVLCDSEIADDLHQKRAVEIFSHLGMKIVFMDSKAHDHHAAIISHLPHVISFSLANFVMKEEDKRNIVHLAGGSFKGMSRIAKSSPQMWESIFLQNKDNLLSSIDFFQQELERCKQMIQLDKNDELREWMKQANTLREILMGHHHHHHSH
MAHHHHHHMGTLEAQTQGPGSMMAASHDDDTVDGLATAVRGGDRAALPRAITLVESTRPDHREQAQQLLLRLLPDSGNAHRVGITGVPGVGKSTAIEALGMHLIERGHRVAVLAVDPSSTRTGGSILGDKTRMARLAVHPNAYIRPSPTSGTLGGVTRATRETVVLLEAAGFDVILIETVGVGQSEVAVANMVDTFVLLTLARTGDQLQGIKKGVLELADIVVVNKADGEHHKEARLAARELSAAIRLIYPREALWRPPVLTMSAVEGRGLAELWDTVERHRQVLTGAGEFDARRRDQQVDWTWQLVRDAVLDRVWSNPTVRKVRSELERRVRAGELTPALAAQQILEIANLTDR
